Source: the domain aggregation screens of Martell et al. (2025)

Experiment: soluble fraction after stress (log2 fold change); higher = more stays soluble; pooled small domains, quantitative proteomics
Details: stress: 50 degC
Procedure, shortened: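 Each library was heated to 50°C as a stress step. The libraries, made up of small protein domains, were pooled and analysed at high throughput by quantitative proteomics. The reported value is the base-two logarithm of the fold change in each protein's soluble amount after stress, taken as a measure of aggregation propensity. The higher the value, the more protein stays in solution.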

| Sequence | soluble fraction (log2) |
| --- | --- |
| HMRSTIYEFTVPPGQLESIRLDVYITSFVENATRSKVQEAIKQGYVWVNGKHEKASYTMLPGDKIYIELPI | -1.79 |
| HMNTEFDVPDVVGKTLDEAEFVLKGSNLKRGLIMPVDDPSKAPGTIVRQNPEAGAGNKIRVGDVVDLWVVG | 0.168 |
| HMTVGEKIQYYRKKIGLSQEELGQKMLLSRQTISLWEMDKTLPTVDNLLRLKEIFSVSIDELLSENEPK | 0.013 |
| HMASKTGTITATSLNVRSGAATTYSILGTLSNGKTVTIYEESNGWYKINYNGGYGWVSKTYVSTG | -0.435 |
| HMKSLLSRREQEVLELVSRGFSYSEIAELKNLSVHTIQTHIKSLYGKLEVHSKMEAVLEATRMGLLPQ | -1.8 |
| HMAPDYYALLGVPRNATTAEVRKAFRGKALEQHPDRGGDEESFRLLSKAYDVLSDSERRKYYDRTG | 0.0767 |
| HMTGQEGLIGAHGVALTRLSNEEGEVKVQGEIWQARSDQEVAKGASIEVVHVDGLVLTVRPQH | -0.0984 |
| HMTKEEFLYELKKELSALDSAEATAYNLRYYSDYIDAEIAKGRSEQEVLDELGNPRWLVNSIKESG | 0.122 |
| HMDMRLADLIGRDGITITFMRPSGKVEIDGEIYDAVSDVGLIDKNEEVEVIKFENAQLVVTKKNKN | -0.0621 |
| HMVTDVDELEKLIQKVLDSNSSQVDEYRQGKEKVFGFFVGAVMKLTKGQADPDVVNQLLKEKLSGRK | 0.195 |
| HMGGKWSMPIIYILSKGKMRFKELERSVEGINTRMLVKELKNMEANGIVTREVFPTVPPTVEYALT | -0.922 |
| HMNVTIGESIKNVINHYGTPIYSYNPNNQEKYYEFHTNKGVLVVTAIGKKNTGYVTRVSMTY | -1.18 |
| HMKKYIEIYNYYKQLIESEQLKSGDKMPSVRKATKIFNVSKTTVQNAYFDLQADGYIIAAPKSGYYVTEM | -0.295 |
| HMKKERITWDERLERFAKYITENESLPYPSSKEHAWFEENKALYDAGELESVRAQSFSFLLKILRRMNLI | -0.278 |
| HMKPSNRSYPTALRMEVIGIIRERYADFGPTLAGEKLAELHGIHLGRETIRQWMMAAGLWKDRR | -0.825 |
| HMVLVGERRQKILEVVSSGKAVTVEELSRILHVSPSTVRRDLRFLESRGLLYRTHGGAMPPV | -1.1 |
| HMEEHSLRKQEMLRIIEALEQLTPKEKTVVVLYYFKGVLFKDIAMLLDVTEGRISQLHTAAMGRLKKLMD | -0.0471 |
| HMKTLELIAAIRKRIAGGYAGADGRLPNIGEIAKDFSVSPMTAQKAVRALVEAGVLTSTRRKGVFLKQPAS | -1.01 |
| HMNLGETIYNLRKEKKLSQGDLAEQLSVSRQSVSKWENNSAVPDLDKLVKLSTIFGVSLDELVKG | 0.0247 |
| HMRIPANIAEDIKKLQKKEHHLHHHLGRDPFDDELAKELEWDTEQVSEIRQMIKNPELLEELLEAEREEE | 0.172 |
| HMVYFAKNIRHLRRLRGMSQELLAAELDITRARLGAYEESRSEPPLHLLIKISEFFKLPVDIIVKNDLTKS | -3.66 |
| HMVSTGIMVVDGRGSVLQHNEAALRQLGVEVLTFESQVKEKLASEDFSVRETTAMLNGKKVRIIAFSDIR | -1.62 |
| HMKLTNIQYETLKVVVESRAKIDEEEGITIKLEDIKKYIDQAISFTGLVGDDEDYKKLFADMEYRFKIQ | -2.38 |
| HMDEFAGSAKPLADGAAPAGYDVKGNKDSMKYHEPGGRWYDATVAEVWFKTAADAEAAGFVKAGA | 0.172 |
| HMKIELTDQQKSLVVDEWNKGEANPPSLLQLIRLAYPDQPHLDGRSKEGKAVKAFLATRDINPLA | 0.0239 |
| HMKVEIVRVVKDIHIGDEITKDMVRTVEVGGYNLPDGVVKDTATVIGRFASADMVPGDYIISSKIADAP | -0.121 |

| Sequence | soluble fraction (log2) |
| --- | --- |
| HMDGEMRRKRILQLLSEQTKPLSGTALAKQFGVSRQVIVQDIALLKSKEPAIISTYRGYVLGR | -0.607 |
| HMDGRVQATAEKLRAALDRLARSSVGSPMIERQLTVAALAREARVGRNAIYANHRDILDELIRVRQQRRA | 0.144 |
| HMAVNQEFKNTINRIKYEYSLNQSQIADRLGVKKTYLSDMINGRVPYNETMNKKVNDVFPLPP | 0.11 |
| HMDRFVLQLSKRYYDSSIEGVRKALAAFPVKTELLDQDRGGRPFYHENGKENEPVFRIMFHPEEGM | -0.542 |
| HMGDEHYDTISAFIKSVRGSDPDAALYWLAKMILAGEDPRFILRRLIVLSGEDIGLADPQGI | -0.653 |
| HMWAQSVSLHGLLGRQALLIVDGKPPRAVAPGQTHLGVTVLSTDEDRAVVALAGGQRLTLRVGESPVSVG | -0.0812 |
| HMRVDRSALDSIPGVGPGRKRTLLHHFGSARAVEASGLADLESIRGISKALARKIYDFFHPE | -1.38 |
| HMDPFAYEVKVTDLAAGSSEIRTVYTEQGSFNIPSGMSGNLKIQVRSASMYDEVEPSDWYTIGEEDIN | -0.0779 |
| HMSQSLSGWAAKDLEVKSGADASYRTVGRLPKGSKVSGKIINGYLHIEFDGSMRYVPVSGISKTE | -0.134 |
| HMSDESALLELVKQIIADNPKAVEEIRAGKEKAMGFLIGQAMKASRGSANPQIISRLVREQLG | 0.128 |
| HMTVSLTDVPFVPEILDRLERPELDVLLAILNGATNTFDLAAKTGRSRDELDEVLDRLTTLGLIER | -0.214 |
| HMLKRLTVEFSAEMPKKMTSEQKEELASVLSEDPRPAYQNDENREYGLDYGEFSVKFKVKDGVLTVTSVTE | -0.0668 |
| HMEFSYMDQGLERYRAFLETHGHGNVPESYHELKLVNFVAHIRKLYRMNLLSEERRRALDEAGFVF | -2.17 |
| HMGKPVTMELLIPYSQGSLVHRISEAGEVAKTEYQNDGTYMQVTFTPSAKDHALMQEVASYRI | 0.184 |
| HMSPDLNEVEEKVFRALNGVESMHVNKLGIELNLPVSELFFTLLELEMKNVVKALPGGMYKL | -1.95 |
| HMEKKDTYTVKNGDSLWGIARTELGDGGRFREIYTLNADTIEAEAKKRGRSSSSEGHWIYPGSVLRLP | 0.0469 |
| HMFKNWMPFDEARIFVRKLKFNSHDEFRKYLKANEINIPSKPWSTYKGKGWVSIGDFLGTHR | -2.82 |
| HMGKLGENIKRIREGMGLSQRQFGELIGKSDSQIWSYENDRTDILASTLYKIAAVANVDFNNLMAGIIP | -0.925 |
| HMKLTINIDAAHDGKTIKQLFAEKGYSLELIKKFKYDGAIEVNGERKTVRWVLREGDLLVLEAN | -1.25 |
| HMFAGEWKQDASGWWYQNDDGSFTRNGWQNISGKQYYFNENGYMLHDTTTPDGKQVGSDGSLV | 0.0661 |
| HMRRSKQERQQAIKTLISNEQIQRQEDLVRKLNEAGWEVTQATISRDITEMQLVKVPLPTGGFAYAVM | 0.126 |
| HMEDIQPSVIFQNNMIDGFKKFGVSFLQNRRNVNVNTLNGLASAGTYPKWQQLLVNKISYIDMLLSTGG | 0.0785 |
| HMKIEDSNTIKLKANQAYKTHYYSEAIKLYDELLTKYEPNSEAIKLNLAHAHFKAKGFAAASKLYT | 0.144 |
| HMKPAFTPYVVKVTADVLNVRSGPGTNYGITTKVKKGEAYTIVEEKNGWGKLKSGAGWISLEYTVK | -0.109 |
| HMPEKNQITHLIRLIDDRDEFVRKRVREQLIKLGEDAIPFLEMAAKTENLEIQRIASEIIQAIIPRQ | -0.13 |
| HMKSAIKQNILLYLSNKGVTSYEFYKISGVTRGILQQSNGISEDNIAKFLAYAPDVNIEWLLTGKGDMLKH | -1.32 |

| Sequence | soluble fraction (log2) |
| --- | --- |
| HMNANTILNSQRILTQLGFNPGPIDGAFGAKTKGALNAFYTSIGKSYDGLLDSNELVELQKALDVSGLKN | -0.295 |
| HMGVSLNELAYRRFKQALVTLSYKPGEYLNTAQVMNDLDMGRTPINQAIHRLANEGLLQVIPRKGVMVS | -1.79 |
| HMEKRLDYTFGLNKEQLLYLTKSIKDGDFYNVSFIDGTEKKLNRVGSTKEVHKYVNFLMTNDGIVKK | 0.0518 |
| HMINRPVYVPLYTNLDVKDAAEIAEKLEENNIAYKLEDQGETILVNPEQKYKVRLMLAQEGLPKG | -0.0681 |
| HMGDGYTYYYDDTVLALGFTKIGNDYYIFNTFSGKMYKDATMWVNDNPYGIKGGMHYFDASGKMFV | 0.128 |
| HMGNIKVPSVMGMTLEGAEKVAKDNGAVIEVLEYKESTEEDGTIIEQSPKADMTVATLEKISVVISGK | -0.105 |
| HMSDTGQELHDALNMARRTLTILEEQAAGYTALTIPARLVLELEEKRKDVVRLETQIRSAATGTPG | -0.202 |
| HMSNFGALLRMRRLEAGLSYRGLAEQSGLARATLVNLEQGLTKPSPLTMRRLASVKALRLTEL | -2.26 |
| HMIPPGTITIEGAITKVPVFLDGKQIGTVPLTKEDVEPGKYRIRVLGVGRVITIDPGEKENVLFSGEDLGL | -0.142 |
| HMAKPAALLFEHRFDGMAEMRFRENIVKNDDGSYTYDEYFLSMLDRAGLEKIVQENMEVWIAYAKQ | -2.17 |
| HMNTGTTISYSDFRDRVASGTVKEVQISDDRITGVLKNDETFNTVPVGNDSGLTKLLDDNGVTYSGTP | 0.174 |
| HMKTLGMDKGVNIALNDAGLRAEDVSNLSAHYDTEDGVPVYEIKFTAGGFSYEYQIKASDGTIIEADRDAA | -0.108 |
| HMGIEQVELASRVRDAVDSLPHHLREIILLSYFQKMSYNQIAETLQVPLGTVKSRLHAAVASFAQAWTQSS | -0.706 |
| HMRQMSEELQSAKEALEDRRTQEKAVLLLMEHRNISNDEAHRLLRKLAMDQGKRLPEVARALVSMAGVL | 0.132 |
| HMDSEKVLTNLKEELVLQLSNIEPYGYVPSQYWYSKVQRVQSVQELGKYVDGDLEAFVMKYAEDWESQK | -0.191 |
| HMEGVNLTVQEAKQMAAIIAPLLKQGQSPYQIVTNHPELGISEKTLYNYIENDVFHEIAGITVMDL | -0.365 |
| HMTFVHTQIEATKEWIISHPLDKHPAVAVVDSAGSIVIGEVDYISKSIVRLRFTAEFSGKAYL | -0.598 |
| HMAGAPANLAARLREQILQGAYHDGQRLPAERHLAAEHGVSRGTVREALRLLEQGALLTRKRGSGSYVTYP | -0.314 |
| HMGGTFLVRILDPALNIRAQPSLTARINGVIRDKSVYTIVATSFEPKTQITWGKLKSGAGWISIGSKYVKK | -3.52 |
| HMKKKSYIVSFATDEDAQRFAREGFEVISLSGRQITVSLKGEMMPLVKALGSYQVVGLETVA | -0.19 |
| HMDDPISSMVNRIRLAFGLSVTDLAAVLGVERPTIYSWLKDGSTPAPARLTRVRQVLSLADTW | -0.194 |
| HMFLPGETFDVKIVKIGEGENQGVGYLDDGTMIVIENGRDHLNELARVIVTRVLQNSAGQMIFSDYEE | -2.27 |
| HMDRIISTPMPGRVVKIPVTEGEPVAKGATVITISAMKMESEYKSPIDGIVKKIHVSEGDNINANQPLIEI | -0.178 |
| HMQELNDQQRLAILNEWNNRATNPPSLLELVRVAFPDAEGADGRSWHGKKVKEFLSTRQIKARAS | 0.119 |
